Results: patent publication US20200055939A1
Residue numbers refer to the chain shown, from its start. “And” between values parts separate entries of the source, which are not always exact repeats. Equal entries are not always repeated.

Experiments:
S245A = test: SPR, Fab over captured MICA*008.mIgG2a Ala variant; KD relative to wild type
G275A = test: as above
E285A = test: as above
H290A = test: as above
I236A = test: as above
H248A = test: as above
T292A = test: as above
R240A = test: as above
R279A = test: as above
Q241A = test: as above
V244A = test: as above
R274A = test: as above
D249A = test: as above
Y283A = test: as above
the other Glyco variants = test: ELISA, coated variant

Sequence of V244A (chain, as listed by the source V244A V244A limits assumed): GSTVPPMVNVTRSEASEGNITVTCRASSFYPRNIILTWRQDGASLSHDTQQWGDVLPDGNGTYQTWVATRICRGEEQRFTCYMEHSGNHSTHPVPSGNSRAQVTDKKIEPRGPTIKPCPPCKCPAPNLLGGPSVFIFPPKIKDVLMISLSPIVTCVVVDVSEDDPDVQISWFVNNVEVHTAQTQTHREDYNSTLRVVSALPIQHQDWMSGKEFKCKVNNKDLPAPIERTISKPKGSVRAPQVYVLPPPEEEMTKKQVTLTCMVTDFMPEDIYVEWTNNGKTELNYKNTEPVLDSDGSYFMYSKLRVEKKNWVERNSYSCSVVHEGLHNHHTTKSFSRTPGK
Sequence of R240A (chain, as listed by the source R240A R240A limits assumed): as the sequence (chain, as listed by the source V244A V244A limits assumed) above, with R39A, A43V counted along it
Sequence of Y283A (chain, as listed by the source Y283A Y283A limits assumed): as the sequence (chain, as listed by the source V244A V244A limits assumed) above, with A43V, Y82A counted along it
Sequence of G275A (chain, as listed by the source G275A G275A limits assumed): as the sequence (chain, as listed by the source V244A V244A limits assumed) above, with A43V, G74A counted along it
Sequence of R279A (chain, as listed by the source R279A R279A limits assumed): as the sequence (chain, as listed by the source V244A V244A limits assumed) above, with A43V, R78A counted along it
Sequence of Q241A (chain, as listed by the source Q241A Q241A limits assumed): as the sequence (chain, as listed by the source V244A V244A limits assumed) above, with Q40A, A43V counted along it
Sequence of D249A (chain, as listed by the source D249A D249A limits assumed): as the sequence (chain, as listed by the source V244A V244A limits assumed) above, with A43V, D48A counted along it
Sequence of S245A (chain, as listed by the source S245A S245A limits assumed): as the sequence (chain, as listed by the source V244A V244A limits assumed) above, with A43V, S44A counted along it
Sequence of H248A (chain, as listed by the source H248A H248A limits assumed): as the sequence (chain, as listed by the source V244A V244A limits assumed) above, with A43V, H47A counted along it
Sequence of R274A (chain, as listed by the source R274A R274A limits assumed): as the sequence (chain, as listed by the source V244A V244A limits assumed) above, with A43V, R73A counted along it
Sequence of E285A (chain, as listed by the source E285A E285A limits assumed): as the sequence (chain, as listed by the source V244A V244A limits assumed) above, with A43V, E84A counted along it
Sequence of I236A (chain, as listed by the source I236A I236A limits assumed): as the sequence (chain, as listed by the source V244A V244A limits assumed) above, with I35A, A43V counted along it
Sequence of T292A (chain, as listed by the source T292A T292A limits assumed): as the sequence (chain, as listed by the source V244A V244A limits assumed) above, with A43V, T91A counted along it
Sequence of H290A (chain, as listed by the source H290A H290A limits assumed): as the sequence (chain, as listed by the source V244A V244A limits assumed) above, with A43V, H89A counted along it

B1: 1D5 Fab (Fab, V domains shown, not shown: a dimerising Fc or GST)
VH: EIQLQQSGPELVKPGASVKVSCKASGYAFTSQNIYWVKQSHGKSLEWIGYIEPYNVVPMYNPKFKGKATLTVDKSSSSAYIHLNSLTSEDSAIYYCARSGSSNFDYWGQGTTLTVSS
VL: EIILTQSPTTMAASPGEKITITCSASSSISSHYLHWYQQKSGFSPKLLIYRTSNLASGVPARFSGSGSGTSYSLTIGTMEAEDVATYYCQQGSSLPLTFGAGTKVEIK
fold-decrease in affinity (S245A): 13 | fold-decrease in affinity (G275A): 0.03 | fold-decrease in affinity (E285A): 1060 | fold-decrease in affinity (H290A): 14400 | fold-decrease in affinity (I236A): 0.01 | fold-decrease in affinity (H248A): 16 | fold-decrease in affinity (T292A): 3040 | fold-decrease in affinity (R240A): 15500 | fold-decrease in affinity (R279A): 3950 | fold-decrease in affinity (Q241A): 9830 | fold-decrease in affinity (V244A): 10400 | fold-decrease in affinity (R274A): 3 | fold-decrease in affinity (D249A): 3.5 | fold-decrease in affinity (Y283A): 6260

B2: 13A9 (antibody, V domains shown)
VH: QVQLQQSGAELVRPGTSVKVSCKASGYAFTNYLIEWVKQRPGQGLEWIGAINPGSGATNYNEKFKDKARLTADKSSNTAYLQFSSLTSDDSAVYFCARFLGNYFDNWGQGATLTVSS
VL: DIQMTQSPASLSASVGETVTITCRASGNIHSYLAWYQQKQGKSPQLLVYYAETLADGVPSRFSGRGSGTQYSLKINSLQPEDFGSYFCQQFWTTPYTFGGGTKVEIK
Elisa value (the other Glyco variants): 3.8 and 3.9

B3: 7D4.6 Fab (Fab, V domains shown)
VH: DVQLQESGPGLVKPSQSLSLTCTVTGYSITSDYAWNWIRQFPRNKLEWMGYINYSGTTNYNPSLKSRISITRDTSKNQFFLQLISVTTEDTATYYCSYYRYDGAWFPYWGQGTLVTVSA
VL: DIQMTQSPASLSASVGETVTITCRASGNIHNYLAWYQQKQGKSPQLLVYNAIMLADGVPSRFSASGSGTQYSLKINSLQPEDFGSYYCQHFWSFPLTFGAGTKVEIK
fold-decrease in affinity (G275A): 3.1 | fold-decrease in affinity (R240A): 1500 | fold-decrease in affinity (V244A): 8.6 | fold-decrease in affinity (Y283A): 3.2

B4: 6F8.7 Fab (Fab, V domains shown)
VH: DVQLQGSGPGLVKPSQSLSLTCSVTGYSITNDYYWNWIRQFPGNKLEWMGFISFGGSNNYNPSLKNRISITRDTSKNQFFLKLSSVTTEDTATYYCARYDGRGAWFAYWAQGTLVTVSA
VL: B3 VL with N50D, M53T, A64G, S85N
fold-decrease in affinity (V244A): 5.5
